From the supplement of paper PMC7877785 come the findings set out here.

± gives the uncertainty stated by the source.

The nature of this data set: self-splicing fitness, log relative to wild type (ln ratio); higher = more splicing; Tetrahymena group I intron in knt gene, E. coli kanamycin selection, DiMSum; sequences stand for … in CUCUCU…GGAGGGAAAAGUUAUCAGGCAUGCACCUGGUAGCUAGUCUUUAAACCAAUAGAUUGCAUCGGUUUAAAAGGCAAGACCGUCAAAUUGCGGGAAAGGGGUCAACAGCCGUUCAGUACCAAGUCUCAGGGGAAACUUUGAGAUGGCCUUGCAAAGGGUAUGGUAAUAAGCUGACGGACAUGGUCCUAACCACGCAGCCAAGUCCUAAGUCAACAGAUCUUCUGUUGAUAUGGAUGCAGUUCACAGACUAAAUGUCGGUCGGGGAAGAUGUAUUCUUCUCAUAAGAUAUAGUCGGACCUCUCCUUAAUGGGAGCUAGCGGAUGAAGUGAUGCAACACUGGAGCCGCUGGGAACUAAUUUGUAUGCGAAAGUAUAUUGAUUAGUUUUGGAGUACUCGUGGUCG
The method, boiled down:
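Fitness was computed with DiMSum as the error-weighted combination of replicate fold changes, kanamycin versus none, each normalised to wild type. The library randomised all eight intron nucleotides of the P1ex region, with the intron placed in the knt kanamycin-resistance gene on pET-22b(+) in E. coli BL21(DE3). Six replicate transformations were grown overnight at 37°C or 30°C on LB agar with or without 25 μg/mL kanamycin, plus 100 μg/mL carbenicillin, 50 μM IPTG and 0.2% rhamnose. Pooled colonies were amplicon-sequenced on an Illumina HiSeq 2500.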

Consider GUUCAGCAAUAUUACGUGAA, for which the “self-splicing fitness (ln)” value was -1.32 ± 0.087 (30 °C) and -0.784 ± 0.11 (37 °C).

As for AGCAAGCAAUAUUACGUAUG, the “self-splicing fitness (ln)” value (30 °C) was -3.61 ± 0.14 and the “self-splicing fitness (ln)” value (37 °C) is -3.29 ± 0.18.

As to AGAAAGCAAUAUUACGCUAC, where the note is “30 °C”, the “self-splicing fitness (ln)” value is -3.25 ± 0.39.

Regarding UACAAGCAAUAUUACGUUGU, the “self-splicing fitness (ln)” value by setting is: (30 °C) -3.58 ± 0.12; (37 °C) -2.99 ± 0.14.

With UCGAAGCAAUAUUACGAUAA, the “self-splicing fitness (ln)” value (30 °C) is -2.17 ± 0.13 and the “self-splicing fitness (ln)” value (37 °C) was -1.13 ± 0.13.

On to GUUCAGCAAUAUUACGCCCC, for which the “self-splicing fitness (ln)” value was -0.521 ± 0.16 (30 °C) and -0.42 ± 0.19 (37 °C).

As to UCGGAGCAAUAUUACGCAGG, the “self-splicing fitness (ln)” value (30 °C) is -2.57 ± 0.44 and the “self-splicing fitness (ln)” value (37 °C) is -2.28 ± 0.43.

For the sequence GCCCAGCAAUAUUACGGUGA, the “self-splicing fitness (ln)” value is -0.302 ± 0.045 (30 °C) and 0.206 ± 0.056 (37 °C).

On to AGUGAGCAAUAUUACGUGCC, for which the “self-splicing fitness (ln)” value (30 °C) is -2.42 ± 0.49 and the “self-splicing fitness (ln)” value (37 °C) was -1.3 ± 0.38.

Take UGUCAGCAAUAUUACGACAA: the “self-splicing fitness (ln)” value reads like this: (30 °C) -1.02 ± 0.097; (37 °C) -0.118 ± 0.1.

With UCGGAGCAAUAUUACGAGUA, the “self-splicing fitness (ln)” value is -3.11 ± 0.42 (30 °C) and -1.89 ± 0.31 (37 °C).

Turning to GAACAGCAAUAUUACGACUG, the “self-splicing fitness (ln)” value is -1.45 ± 0.085 (30 °C) and 0.155 ± 0.1 (37 °C).

For GACAAGCAAUAUUACGGCGG, the “self-splicing fitness (ln)” value is -3.27 ± 0.29 (30 °C) and -1.87 ± 0.18 (37 °C).

In the case of ACGGAGCAAUAUUACGACGA, the “self-splicing fitness (ln)” value (30 °C) was -1.49 ± 0.1 and the “self-splicing fitness (ln)” value (37 °C) is -0.442 ± 0.13.

For AACUAGCAAUAUUACGGGUC, the “self-splicing fitness (ln)” value (30 °C) was -1.88 ± 0.24 and the “self-splicing fitness (ln)” value (37 °C) is -1.78 ± 0.22.

As to UACGAGCAAUAUUACGGUCA, the “self-splicing fitness (ln)” value is, setting by setting: (30 °C) -1.39 ± 0.11; (37 °C) -0.173 ± 0.11.

With CGCGAGCAAUAUUACGGAUG, the “self-splicing fitness (ln)” value (30 °C) is -2.25 ± 0.17 and the “self-splicing fitness (ln)” value (37 °C) is -0.671 ± 0.12.

With ACCGAGCAAUAUUACGUCGC, the “self-splicing fitness (ln)” value (30 °C) is -3.69 ± 0.28.

Consider GAACAGCAAUAUUACGUCGG, for which the “self-splicing fitness (ln)” value was -2.64 ± 0.16 (30 °C) and -1.85 ± 0.28 (37 °C).

For the sequence CCAGAGCAAUAUUACGAGUG, the “self-splicing fitness (ln)” value reads like this: (30 °C) -1.2 ± 0.073; (37 °C) -0.146 ± 0.092.

Consider AAUUAGCAAUAUUACGCAUG, for which the “self-splicing fitness (ln)” value by setting is: (30 °C) -1.7 ± 0.15; (37 °C) 0.109 ± 0.2.

Take CACAAGCAAUAUUACGGGAU: the “self-splicing fitness (ln)” value was -3.51 ± 0.14 (30 °C) and -1.41 ± 0.097 (37 °C).

As for CUGGAGCAAUAUUACGUACU, the “self-splicing fitness (ln)” value (37 °C) was -2.19 ± 0.43.

As for GGCAAGCAAUAUUACGUAAG, the “self-splicing fitness (ln)” value was -0.742 ± 0.072 (30 °C) and -1 ± 0.1 (37 °C).

For the sequence GUUGAGCAAUAUUACGGUGG, the “self-splicing fitness (ln)” value reads like this: (30 °C) -2.81 ± 0.33; (37 °C) -2.81 ± 0.48.

For GUACAGCAAUAUUACGGGGU, the “self-splicing fitness (ln)” value by setting is: (30 °C) -3.29 ± 0.16; (37 °C) -2.34 ± 0.11.

In the case of CCGCAGCAAUAUUACGAGCU, the “self-splicing fitness (ln)” value reads like this: (30 °C) -2.93 ± 0.27; (37 °C) -3.37 ± 0.28.

Take UAUUAGCAAUAUUACGUCAU: the “self-splicing fitness (ln)” value (30 °C) is -3.69 ± 0.31 and the “self-splicing fitness (ln)” value (37 °C) was -2.81 ± 0.27.

Regarding UCGAAGCAAUAUUACGACAC, the “self-splicing fitness (ln)” value runs as follows: (30 °C) -2.44 ± 0.41; (37 °C) -2.26 ± 0.38.

Take GGAAAGCAAUAUUACGCAUG: the “self-splicing fitness (ln)” value reads like this: (30 °C) -1.24 ± 0.084; (37 °C) -0.813 ± 0.11.

On to GUGGAGCAAUAUUACGGGUG, for which the “self-splicing fitness (ln)” value was -3.8 ± 0.37 (30 °C) and -2.9 ± 0.47 (37 °C).

Take CCCGAGCAAUAUUACGACGA: the “self-splicing fitness (ln)” value (30 °C) is -3.44 ± 0.43 and the “self-splicing fitness (ln)” value (37 °C) is -1.6 ± 0.2.

With AAAUAGCAAUAUUACGCGCC, the “self-splicing fitness (ln)” value was -0.57 ± 0.13 (30 °C) and -0.337 ± 0.15 (37 °C).

UCCGAGCAAUAUUACGCAUU: the “self-splicing fitness (ln)” value (30 °C) is -2.2 ± 0.19 and the “self-splicing fitness (ln)” value (37 °C) was -3.08 ± 0.37.

Consider UACGAGCAAUAUUACGUUUC, for which the “self-splicing fitness (ln)” value by setting is: (30 °C) -2.65 ± 0.32; (37 °C) -1.69 ± 0.24.

In the case of UGCCAGCAAUAUUACGCUCG, the “self-splicing fitness (ln)” value (30 °C) is -0.839 ± 0.086 and the “self-splicing fitness (ln)” value (37 °C) was -0.622 ± 0.14.

For CGCUAGCAAUAUUACGUCGG, the “self-splicing fitness (ln)” value reads like this: (30 °C) -1.6 ± 0.075; (37 °C) -0.631 ± 0.12.

As to CAAGAGCAAUAUUACGAGGG, the “self-splicing fitness (ln)” value was -3.17 ± 0.16 (30 °C) and -2.75 ± 0.2 (37 °C).
